The target of data set [1] is T1, ScMre11p (Saccharomyces cerevisiae, UniProt P32829 1-692).
T1 sequence: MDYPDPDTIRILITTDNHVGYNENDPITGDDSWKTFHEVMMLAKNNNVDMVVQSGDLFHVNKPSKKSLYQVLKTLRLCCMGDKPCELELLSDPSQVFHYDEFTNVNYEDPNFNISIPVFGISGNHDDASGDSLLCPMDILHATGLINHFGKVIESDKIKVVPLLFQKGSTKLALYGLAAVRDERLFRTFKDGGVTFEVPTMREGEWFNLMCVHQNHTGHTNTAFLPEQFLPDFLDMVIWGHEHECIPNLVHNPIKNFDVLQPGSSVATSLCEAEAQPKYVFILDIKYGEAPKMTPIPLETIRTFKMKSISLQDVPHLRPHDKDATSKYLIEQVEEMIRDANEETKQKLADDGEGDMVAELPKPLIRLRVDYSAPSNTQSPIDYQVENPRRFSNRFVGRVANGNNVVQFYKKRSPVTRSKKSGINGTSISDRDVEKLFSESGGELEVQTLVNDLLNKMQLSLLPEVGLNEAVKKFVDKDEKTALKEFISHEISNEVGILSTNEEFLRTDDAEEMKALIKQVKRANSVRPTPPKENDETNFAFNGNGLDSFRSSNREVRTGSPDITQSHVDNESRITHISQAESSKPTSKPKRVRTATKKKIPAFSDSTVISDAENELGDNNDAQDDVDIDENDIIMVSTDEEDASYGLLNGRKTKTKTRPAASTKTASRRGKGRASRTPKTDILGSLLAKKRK
Nature of the data set: EMSA. In general terms: A gel shift assay detects complexes by their altered migration in electrophoresis.

The target of data set [2] is T1, ScMre11p. Nature of the data set: EMSA. The source holds these as a separate data set.

B1: 6G3 G4 DNA (structured_DNA)
DNA: AATTCTGGGTGTGTGGGTGTGTGGGTGTGTGGGTGTGTGGGTGTGTGGGTGTGG
On to B1, for which, in the data set with ScMre11p [1], the binding result was “binds”.

B2: 4G3 G4 DNA (structured_DNA)
DNA: AATTCTGGGTGTGTGGGTGTGTGGGTGTGTGGGTGTGG
What is called Kd is the free concentration of one partner at which half of the binding sites on the other are occupied at equilibrium, for simple one-to-one binding. As for B2, in the data set with ScMre11p [2], the affinity, expressed as Kd, was 70 nM.

For the origin of these results see PMC1188515.
